Measurements as given in US20220073649A1 (MERUS N V, published 2022).

How the values were obtained:
[1] = molecular target: T1, mouse CXCR4 (wildtype full length) (mouse, UniProt P70658 1-359); test: figure legend (flow cytometry of Example 10)
T1 construct: Natively folded mouse CXCR4 expressed on HEK293 cells for flow cytometry
Text: (§1) Fab phage libraries were panned on mouse CXCR4 lipoparticles. Clones were screened by lipoparticle ELISA. Binders were sequenced and grouped into families based on CDR3 homology. Fab from three VHCDR3 families were validated by flow cytometry using HEK293 cells expressing natively folded mouse CXCR4. These families were subsequently tested for binding to human CXCR4 by flow cytometry. The positive clones were recloned into IgG format according to standard methods. Three VHCDR3 families were identified that are crossreactive with human and mouse CXCR4. The amino acid sequences of the heavy chain variable region of the mouse and human CXCR4 binding antibodies are set forth in SEQ Nos: 31, 32 and 33.

[2] = molecular target: T2, human CXCR4 (human, UniProt P61073 1-352); test: figure legend (flow cytometry of Example 10)
T2 construct: whole, on cells; Tested by flow cytometry; also called human C-X-C Motif Chemokine Receptor 4
Text: as §1

[3] = molecular target: T2, human CXCR4; test: flow cytometry on human CXCR4
Text: as §1

[4] = molecular target: T1, mouse CXCR4 (wildtype full length); test: flow cytometry, Fab on HEK293 cells expressing natively folded mouse CXCR4
Text: as §1

T2 sequence (P61073 whole entry): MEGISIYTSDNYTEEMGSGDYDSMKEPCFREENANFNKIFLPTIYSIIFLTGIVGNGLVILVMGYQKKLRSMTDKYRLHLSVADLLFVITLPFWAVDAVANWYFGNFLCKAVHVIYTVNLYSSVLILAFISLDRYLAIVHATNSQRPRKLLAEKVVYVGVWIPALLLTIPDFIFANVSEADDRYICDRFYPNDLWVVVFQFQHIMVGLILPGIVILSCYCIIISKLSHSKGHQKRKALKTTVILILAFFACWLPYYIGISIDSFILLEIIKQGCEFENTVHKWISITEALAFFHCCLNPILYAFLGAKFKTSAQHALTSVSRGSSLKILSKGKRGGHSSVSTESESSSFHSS
T1 sequence (P70658 whole entry): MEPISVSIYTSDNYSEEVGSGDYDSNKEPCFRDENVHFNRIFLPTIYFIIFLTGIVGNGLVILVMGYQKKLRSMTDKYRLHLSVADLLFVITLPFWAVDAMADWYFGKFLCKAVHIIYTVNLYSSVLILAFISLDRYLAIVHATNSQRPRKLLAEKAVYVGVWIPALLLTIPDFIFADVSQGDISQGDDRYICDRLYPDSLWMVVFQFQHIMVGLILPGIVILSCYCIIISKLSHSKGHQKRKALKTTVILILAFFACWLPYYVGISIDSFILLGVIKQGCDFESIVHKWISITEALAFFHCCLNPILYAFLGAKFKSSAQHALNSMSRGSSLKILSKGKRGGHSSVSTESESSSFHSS

| Binder | binding result [1] | binding result [2] | binding result [3] | binding result [4] |
| --- | --- | --- | --- | --- |
| CXCR4-3 (third chimeric Fab comprising a chicken VH paired with a human VL that binds to mouse and human CXCR4) (Fab, V domains shown, Positive clones were later recloned into IgG format; also called chicken VH-human VL Fab) VH: AVTLDESGGGLQTPGGALSLVCKASGFSIGSYGMGWVRQAPGKGLEFVAGISTIGGVTWYGAAVKGRAIISRDNGQSTVRLQLNNLRAEDTGTYFCAKASDSPSCRYGSRSGWSCPGWNYGGRIDAWGHGTEVIVSS VL: not shown | binds | binds |  |  |
| CXCR4-1 (first chimeric Fab comprising a chicken VH paired with a human VL that binds to mouse and human CXCR4) (Fab, V domains shown, Positive clones were later recloned into IgG format; also called chicken VH-human VL Fab) VH: AVTLDESGGGLQTPGGALSLVCKASGFTFSSYRGMHWVRQAPGKGLEWVAGIYSSGSSTAYGAAVKGRATISRDDGQSTVRLQLNNLRAEDTGTYYCAKDAGSCWYGRRSGFNCDPYGGNIDAWGHGTEVIVSS VL: not shown |  |  | binds | binds |
| CXCR4-2 (second chimeric Fab comprising a chicken VH paired with a human VL that binds to mouse and human CXCR4) (Fab, V domains shown, Positive clones were later recloned into IgG format; also called chicken VH-human VL Fab) VH: AVTLDESGGGLQTPGGALSLVCKASGFSFSSYDMSWVRQAPGKGLEWVAGIYSIGRDAGYGAAVKGRATISRDNGQSTVRLQLNNLRAEDTGTYYCAKESGSACRYAARHGYICAGYLGSIDAWGHGTEVIVSS VL: not shown |  | binds |  | binds |
